Measured values: the FLAb antibody collection
Numbering of substitutions follows the chain as printed.

Assay: patients with anti-drug antibodies; higher = more immunogenic

B1: unnamed (protein)
chain 1: QVQLQESGPGLVKPSQTLSLTCTVSGYSISSDFAWNWIRQPPGKGLEWMGYISYSGNTRYQPSLKSRITISRDTSKNQFFLKLNSVTAADTATYYCVTAGRGFPYWGQGTLVTVSS
chain 2: DIQMTQSPSSMSVSVGDRVTITCHSSQDINSNIGWLQQKPGKSFKGLIYHGTNLDDGVPSRFSGSGSGTDYTLTISSLQPEDFATYYCVQYAQFPWTFGGGTKLEIK
  patients with anti-drug antibodies: 5%

B2: unnamed (protein)
chain 1: QVQLVQSGAEVKKPGASVKVSCKVSGYTFTSYDINWVRQAPGKGLEWMGWIYPGDGSIKYNEKFKGRVTMTVDKSTDTAYMELSSLRSEDTAVYYCARRGEYGNYEGAMDYWGQGTLVTVSS
chain 2: DIQMTQSPSSLSASVGDRVTITCKASQSVDYDGHSYMNWYQQKPGKAPKLLIYAASNLESGVPSRFSGSGSGTDFTLTISSLQPEDFATYYCQQSDENPLTFGGGTKVEIK
  patients with anti-drug antibodies: 0.9%

B3: unnamed (protein)
chain 1: QVQLQESGPGLVKPSQTLSLTCTVSGGSISSGDYFWSWIRQLPGKGLEWIGHIHNSGTTYYNPSLKSRVTISVDTSKKQFSLRLSSVTAADTAVYYCARDRGGDYYYGMDVWGQGTTVTVSS
chain 2: EIVLTQSPGTLSLSPGERATLSCRASQGISRSYLAWYQQKPGQAPSLLIYGASSRATGIPDRFSGSGSGTDFTLTISRLEPEDFAVYYCQQFGSSPWTFGQGTKVEIK
  patients with anti-drug antibodies: 0%

B4: unnamed (protein)
chain 1: EVQLLESGGGLVQPGGSLRLSCAASGFTFSSYAMSWVRQAPGKGLEWVSGITGSGGSTYYADSVKGRFTISRDNSKNTLYLQMNSLRAEDTAVYYCAKDPGTTVIMSWFDPWGQGTLVTVSS
chain 2: B3 chain 2 with G28S, I29V, S30R, R31G, S32R, S46R, Y87F, F92Y, W97R
  patients with anti-drug antibodies: 1%

B5: unnamed (protein)
chain 1: QVQLKESGPGLVAPSQSLSITCTVSGFSLTDYGVRWIRQPPGKGLEWLGVIWGGGSTYYNSALKSRLSISKDNSKSQVFLKMNSLQTDDTAMYYCAKEKRRGYYYAMDYWGQGTSVTVSS
chain 2: ENVLTQSPAIMSASPGEKVTMTCRASSSVSSSYLHWYQQKSGASPKLWIYSTSNLASGVPARFSGSGSGTSYSLTISSVEAEDAATYYCQQYSGYPLTFGGGTKLEIK
  patients with anti-drug antibodies: 33.3%

B6: unnamed (protein)
chain 1: EVQLLQSGPELEKPGASVMISCKASGSSFTGYNMNWVRQNIGKSLEWIGAIDPYYGGTSYNQKFKGRATLTVDKSSSTAYMHLKSLTSEDSAVYYCVSGMEYWGQGTSVTVSS
chain 2: EIVMTQSPATLSVSPGERATLSCRSSQSLVHRNGNTYLHWYLQKPGQSPKLLIHKVSNRFSGVPDRFSGSGSGTDFTLKISRVEAEDLGVYFCSQSTHVPPLTFGAGTKLELK
  patients with anti-drug antibodies: 17%

B7: unnamed (protein)
chain 1: QVQLQQSGAEVKKPGASVKVSCEASGYTFPSYVLHWVKQAPGQGLEWIGYINPYNDGTQYNEKFKGKATLTRDTSINTAYMELSRLRSDDTAVYYCARGFGGSYGFAYWGQGTLVTVSS
chain 2: DIQLTQSPSSLSASVGDRVTMTCSASSSVSSSYLYWYQQKPGKAPKLWIYSTSNLASGVPARFSGSGSGTDFTLTISSLQPEDSASYFCHQWNRYPYTFGGGTRLEIK
  patients with anti-drug antibodies: 10%

B8: unnamed (protein)
chain 1: EVQLVESGGGLVQPGGSLRLSCAASGFTFSSYGMSWVRQAPGKGLELVASINSNGGSTYYPDSVKGRFTISRDNAKNSLYLQMNSLRAEDTAVYYCASGDYWGQGTTVTVSS
chain 2: DIVMTQSPLSLPVTPGEPASISCRSSQSLVYSNGDTYLHWYLQKPGQSPQLLIYKVSNRFSGVPDRFSGSGSGTDFTLKISRVEAEDVGVYYCSQSTHVPWTFGQGTKVEIK
  patients with anti-drug antibodies: 0%

B9: unnamed (protein)
chain 1: QVQLQESGPGLVKPSETLSLTCTVSGYSITGGYLWNWIRQPPGKGLEWIGYISYDGTNNYKPSLKDRVTISRDTSKNQFSLKLSSVTAADTAVYYCARYGRVFFDYWGQGTLVTVSS
chain 2: B8 chain 2 with L29I, Y31H, D35N, H39Q, F60L, S61Y, S94F, S96G, T97S
  patients with anti-drug antibodies: 0%

B10: unnamed (protein)
chain 1: EVQLVESGGGLVKPGGSLRLSCAASGFTFSNYAMSWVRQTPEKRLEWVATISRSGSYSYFPDSVQGRFTISRDNAKNSLYLQMNSLRAEDTAVYYCARLGGYDEGDAMDSWGQGTTVTVSS
chain 2: DIVMTQTPLSLSVTPGQPASISCKSSQSLLESDGKTYLNWYLQKPGQSPQLLIYLVSILDSGVPDRFSGSGSGTDFTLKISRVEAEDVGVYYCLQATHFPQTFGGGTKVEIK
  patients with anti-drug antibodies: 17%

B11: unnamed (protein)
chain 1: EVQLVESGGGLEQPGGSLRLSCAGSGFTFRDYAMTWVRQAPGKGLEWVSSISGSGGNTYYADSVKGRFTISRDNSKNTLYLQMNSLRAEDTAVYYCAKDRLSITIRPRYYGLDVWGQGTTVTVSS
chain 2: DIVMTQSPLSLPVTPGEPASISCRSSQSLLYSIGYNYLDWYLQKSGQSPQLLIYLGSNRASGVPDRFSGSGSGTDFTLKISRVEAEDVGFYYCMQALQTPYTFGQGTKLEIK
  patients with anti-drug antibodies: 4%

B12: unnamed (protein)
chain 1: EVQLVESGGGLVQPGGSLRLSCAVSGFSSTNYHVHWVRQAPGKGLEWMGVIWGDGDTSYNSVLKSRFTISRDTSKNTVYLQMNSLRAEDTAVYYCARQLTHYYVLAAWGQGTLVTVSS
chain 2: DIQMTQSPSSLSASVGDRVTITCRASEDLYYNLAWYQRKPGKAPKLLIYDTYRLADGVPSRFSGSGSGTDYTLTISSLQPEDFASYYCQQYYKFPFTFGQGTKVEIK
  patients with anti-drug antibodies: 8.9%

B13: unnamed (protein)
chain 1: EVQLLESGGGLVQPGGSLRLSCAVSGFTFNSFAMSWVRQAPGKGLEWVSAISGSGGGTYYADSVKGRFTISRDNSKNTLYLQMNSLRAEDTAVYFCAKDKILWFGEPVFDYWGQGTLVTVSS
chain 2: not shown
  patients with anti-drug antibodies: 0%

B14: unnamed (protein)
chain 1: EVQLLESGGGLVQPGGSLRLSCAASGFTFSSYAMSWVRQAPGKGLEWVSTISSGGSYTSYPDSVKGRFTISRDNSKNTLYLQMNSLRAEDTAVYYCAKQDYAMNYWGQGTLVTVSS
chain 2: DIQMTQSPSSLSASVGDRVTITCKASQDVSTAVAWYQQKPGKAPKLLIYSASYRYTGVPSRFSGSGSGTDFTLTISSLQPEDFATYYCQQHYSTPWTFGGGTKVEIK
  patients with anti-drug antibodies: 9.4%

B15: unnamed (protein)
chain 1: QVQLVQPGAEVVKPGASVKLSCKTSGYTFTSNWMHWVKQAPGQGLEWIGEIDPSDSYTNYNQNFQGKAKLTVDKSTSTAYMEVSSLRSDDTAVYYCARGSNPYYYAMDYWGQGTSVTVSS
chain 2: EIVLTQSPAIMSASPGERVTMTCSASSGVNYMHWYQQKPGTSPRRWIYDTSKLASGVPARFSGSGSGTDYSLTISSMEPEDAATYYCHQRGSYTFGGGTKLEIK
  patients with anti-drug antibodies: 33%

B16: unnamed (protein)
chain 1: QVQLVESGGGVVQPGRSLRLSCAASGFSFSNYGMHWVRQAPGKGLEWVALIWYDGSNEDYTDSVKGRFTISRDNSKNTLYLQMNSLRAEDTAVYYCARWGMVRGVIDVFDIWGQGTVVTVSS
chain 2: DIQMTQSPSSVSASVGDRVTITCRASQGISSWLAWYQHKPGKAPKLLIYAASSLQSGVPSRFSGSGSGTDFTLTISSLQPEDFATYYCQQANSFPWTFGQGTKVEIK
  patients with anti-drug antibodies: 0%

B17: unnamed (protein)
chain 1: EVQLVESGGGLVQPGGSLRLSCAASGYSFTGYYIHWVRQAPGKGLEWVARVIPNAGGTSYNQKFKGRFTLSVDNSKNTAYLQMNSLRAEDTAVYYCAREGIYWWGQGTLVTVSS
chain 2: DIQMTQSPSSLSASVGDRVTITCRSSQSLVHSNGNTFLHWYQQKPGKAPKLLIYTVSNRFSGVPSRFSGSGSGTDFTLTISSLQPEDFATYFCSQTTHVPWTFGQGTKVEIK
  patients with anti-drug antibodies: 0%

B18: unnamed (protein)
chain 1: EVQLVQSGAEVKKPGATVKISCKVSGYTFTDYYIHWVQQAPGKGLEWMGRVNPDHGDSYYNQKFKDKATITADKSTDTAYMELSSLRSEDTAVYFCARNYLFDHWGQGTLVTVSS
chain 2: DIQMTQSPSSVSASVGDRVTITCKASQDVGTAVAWYQQKPGKAPKLLIYWASIRHTGVPSRFSGSGSGTDFTLTISSLQPEDFATYYCHQFATYTFGGGTKVEIK
  patients with anti-drug antibodies: 58.6%

B19: unnamed (protein)
chain 1: QVQLVQSGAEVKKPGSSVKVSCKASGYTFTSYRMHWVRQAPGQGLEWIGYINPSTGYTEYNQKFKDKATITADESTNTAYMELSSLRSEDTAVYYCARGGGVFDYWGQGTLVTVSS
chain 2: DIQMTQSPSTLSASVGDRVTITCSASSSISYMHWYQQKPGKAPKLLIYTTSNLASGVPARFSGSGSGTEFTLTISSLQPDDFATYYCHQRSTYPLTFGQGTKVEVK
  patients with anti-drug antibodies: 19%

B20: unnamed (protein)
chain 1: EVQLVESGGGLVQPGGSLRLSCAASGFSLSNYYVTWVRQAPGKGLEWVGIIYGSDETAYATSAIGRFTISRDNSKNTLYLQMNSLRAEDTAVYYCARDDSSDWDAKFNLWGQGTLVTVSS
chain 2: AIQMTQSPSSLSASVGDRVTITCQASQSINNELSWYQQKPGKAPKLLIYRASTLASGVPSRFSGSGSGTDFTLTISSLQPDDFATYYCQQGYSLRNIDNAFGGGTKVEIK
  patients with anti-drug antibodies: 1.8%
